In patent publication US20050244864A1, “Development and use of fluorescent probes of unbound analytes” (priority 2004, published 2005):
Numbering of substitutions follows the chain as printed. Names may count otherwise.

B1: VQQ: probe L72V R106Q R126Q of rI-FABP (protein, UniProt P02693 2-132, looked up, variant L72V R106Q R126Q)
Fatty acid-binding protein, …: AFDGTWKVDRNENYEKFMEKMGINVVKRKLGAHDNLKLTITQEGNKFTVKESSNFRNIDVVFELGVDFAYSVADGTELTGTWTMEGNKLVGKFKRVDNGKELIAVQEISGNELIQTYTYEGVEAKQIFKKE
modifications: fluorescent label
notes: probe L72V R106Q R126Q of rI-FABP
B2: Y117A, L72A: acrylodan-labeled rI-FABP mutein Y117A, L72A (protein)
chain: B1 Fatty acid-binding protein, … with V72A, Q106R, Y117A, Q126R
B3: W82F, L72A: acrylodan-labeled rI-FABP mutein W82F, L72A (protein)
chain: B1 Fatty acid-binding protein, … with V72A, W82F, Q106R, Q126R
B4: R106W, L72A: acrylodan-labeled rI-FABP mutein R106W, L72A (protein)
chain: B1 Fatty acid-binding protein, … with V72A, Q106W, Q126R
B5: L78F, L72A: acrylodan-labeled rI-FABP mutein L78F, L72A (protein)
chain: B1 Fatty acid-binding protein, … with V72A, L78F, Q106R, Q126R
B6: D74F, L72A: acrylodan-labeled rI-FABP mutein D74F, L72A (protein)
chain: B1 Fatty acid-binding protein, … with V72A, D74F, Q106R, Q126R
B7: 47S1, L72A (protein, UniProt P02693 2-132, looked up, variant F47S L72A)
Fatty acid-binding protein, …: B1 Fatty acid-binding protein, … with F47S, V72A, Q106R, Q126R
modifications: acrylodan label
B8: 11D1, L72A (protein, UniProt P02693 2-132, looked up, variant N11D L72A)
Fatty acid-binding protein, …: B1 Fatty acid-binding protein, … with N11D, V72A, Q106R, Q126R
modifications: acrylodan label
B9: 47M2, L72A (protein, UniProt P02693 2-132, looked up, variant F47M L72A)
Fatty acid-binding protein, …: B1 Fatty acid-binding protein, … with F47M, V72A, Q106R, Q126R
modifications: acrylodan label
B10: 40V1, L72A (protein, UniProt P02693 2-132, looked up, variant I40V L72A)
Fatty acid-binding protein, …: B1 Fatty acid-binding protein, … with I40V, V72A, Q106R, Q126R
modifications: acrylodan label
B11: 47H1, L72A (protein, UniProt P02693 2-132, looked up, variant F47H L72A)
Fatty acid-binding protein, …: B1 Fatty acid-binding protein, … with F47H, V72A, Q106R, Q126R
modifications: acrylodan label
B12: 47G1, L72A (protein, UniProt P02693 2-132, looked up, variant F47G L72A)
Fatty acid-binding protein, …: B1 Fatty acid-binding protein, … with F47G, V72A, Q106R, Q126R
modifications: acrylodan label
B13: 40F2, L72A (protein, UniProt P02693 2-132, looked up, variant I40F L72A)
Fatty acid-binding protein, …: B1 Fatty acid-binding protein, … with I40F, V72A, Q106R, Q126R
modifications: acrylodan label
B14: 11S5, L72A (protein, UniProt P02693 2-132, looked up, variant N11S L72A)
Fatty acid-binding protein, …: B1 Fatty acid-binding protein, … with N11S, V72A, Q106R, Q126R
modifications: acrylodan label
B15: 11Q1, L72A (protein, UniProt P02693 2-132, looked up, variant N11Q L72A)
Fatty acid-binding protein, …: B1 Fatty acid-binding protein, … with N11Q, V72A, Q106R, Q126R
modifications: acrylodan label
B16: 14Y, 72A wt (protein, UniProt P02693 2-132, looked up, variant L72A)
Fatty acid-binding protein, …: B1 Fatty acid-binding protein, … with V72A, Q106R, Q126R
modifications: acrylodan label
B17: 11W1, L72A (protein, UniProt P02693 2-132, looked up, variant N11W L72A)
Fatty acid-binding protein, …: B1 Fatty acid-binding protein, … with N11W, V72A, Q106R, Q126R
modifications: acrylodan label
B18: 47T1, L72A (protein, UniProt P02693 2-132, looked up, variant F47T L72A)
Fatty acid-binding protein, …: B1 Fatty acid-binding protein, … with F47T, V72A, Q106R, Q126R
modifications: acrylodan label
B19: 11I1, L72A (protein, UniProt P02693 2-132, looked up, variant N11I L72A)
Fatty acid-binding protein, …: B1 Fatty acid-binding protein, … with N11I, V72A, Q106R, Q126R
modifications: acrylodan label
B20: 47C3, L72A (protein, UniProt P02693 2-132, looked up, variant F47C L72A)
Fatty acid-binding protein, …: B1 Fatty acid-binding protein, … with F47C, V72A, Q106R, Q126R
modifications: acrylodan label
B21: 11F1, L72A (protein, UniProt P02693 2-132, looked up, variant N11F L72A)
Fatty acid-binding protein, …: B1 Fatty acid-binding protein, … with N11F, V72A, Q106R, Q126R
modifications: acrylodan label

Assay: Probe fluorescence ratio response to palmitate:BSA complex, relative to ADIFAB2 (ΔR/ΔRAD2)
Format: binding
Details: not given
Protocol: (§1) The intensity ratio (“R” value) for a given probe is determined. The ratio is calculated using the following formula: R=Fλ1/Fλ2 wherein, Fλ1, is the measured fluorescence intensities (intensity of sample with probe present minus intensity of sample without probe present) at wavelength 1 and Fλ2 is the measured fluorescence intensities (intensity of sample with probe present minus intensity of sample without probe present) at wavelength 2. Then, for a given probe, ΔR, the difference in R value between the measurement in the presence of the analyte and in the absence of the analyte, is calculated as follows: ΔR=R+analyte−R0 The ΔR value for a given probe is then compared to a reference probe, for example, ADIFAB or ADIFAB2, by ΔR/ΔRreference. This value is an indication of how dissimilar the new probe (derived by mutation of the template) is to the reference. By this method, probes with new and useful characteristics may be identified. Measurements of fluorescence intensities are obtained using standard techniques.
(§2) Mutant probes were screened in 96-well plates by fluorescence response to five fatty acids: arachidonate, linolenate, linoleate, oleate, and palmitate. Each fatty acid was prepared as a complex with BSA by slow addition of 50 mM stocks of fatty acid sodium salts at pH 11 to 600 μM BSA in HEPES buffer. During the formation of complexes, 15 μL aliquots were periodically measured with the reference probe, ADIFAB2, to determine the ΔR value upon excitation at 375 nm and fluorescence emission at 550 and 457 nm using a Fluorolog-3 spectrofluorometer (Jobin Yvon) (Richieri et al, Molecular and Cellular Biochemistry (1999), 192:87-94 & Richieri et al, J. Biol. Chem. (1996), 271:31068-31074). Complexes were prepared such that the final ΔR was approximately 0.4 which correspond to [FFAu] ranging from 100 to 1000 nM depending on FFA type. These complexes buffer or clamp the FFAu levels at fixed values and therefore ensure the accurate comparison of different probes with the same FFAu concentrations. In contrast, addition of FFAu alone (i.e. uncomplexed FFA) introduces considerable uncertainty in comparing different probes because the FFAu level will be affected by binding to the dispensing device, the walls of the multi-well plates and to the probe itself. Thus, the terms “buffer” and “clamp” as used in this particular context herein are taken to mean the ability of a carrier macromolecule to complex with an unbound metabolite so that the unbound metabolite is presented accurately for measurement purposes and is prevented from non-specific binding such as binding to laboratory apparatus.
(§3) Plates were prepared and read in two stages. First, complexes and fatty acid free BSA were diluted to 6 μM BSA in HEPES and added to the 96-well plate at 300 μL per well. A MultiProbe II HT (Perkin Elmer) (an automated liquid handling system) was used to facilitate plate preparation for high throughput screening, but any automated or manual pipetting system will suffice. The background fluorescence was then measured at the same wavelengths as used for ADIFAB2 using a Fluorolog-3 spectrofluorometer with an external Micromax 384 fluorescence plate reader (Jobin Yvon). In the second stage, 30 μL aliquots of the mutant probes were added to multiple wells of the plate, one for each fatty acid and one with fatty acid free BSA only, and the fluorescence intensity at each wavelength was again measured on the plate reader. After subtraction of the background fluorescence, the fluorescence ratio of each well was calculated.
(§4) The fluorescence response was quantitatively compared to ADIFAB2 to search for changes in magnitude and fatty acid profile; for example the response to one fatty acid relative to another. For each probe the ratio differences (AR) between wells with each fatty acid compared to a corresponding well with fatty acid free BSA were recorded. […]

Row | Molecule | response to palmitic acid
1 | B1 | does not respond to palmitic acid

Same assay, conditions: fluorescence response (R-Ro) relative to ADIFAB2; palmitate

Row | Molecule | ΔR/ΔRAD2 PA
2 | B2 | 0.32
3 | B3 | 0.41
4 | B4 | 0.41
5 | B5 | 0.91
6 | B6 | 0.93

Same assay, conditions: palmitate (PA); response relative to ADIFAB2

Row | Molecule | DR/DR PA
7 | B7 | 0.34
8 | B8 | 0.83
9 | B9 | 0.83
10 | B10 | 0.91
11 | B11 | 0.43
12 | B12 | 0.32
13 | B13 | 0.80
14 | B14 | 0.35
15 | B15 | 1.19
16 | B16 | 1.07
17 | B17 | 0.15
18 | B18 | 0.46
19 | B19 | 1.19
20 | B20 | 0.23
21 | B21 | 0.18

Assay: Probe fluorescence ratio response to linoleate:BSA complex, relative to ADIFAB2 (ΔR/ΔRAD2)
Format: binding
Details: fluorescence response (R-Ro) relative to ADIFAB2; linoleate
Protocol: as §1, §2, §3, §4

Row | Molecule | ΔR/ΔRAD2 LA
22 | B2 | 1.01
23 | B3 | 1.08
24 | B4 | 1.04
25 | B5 | 2
26 | B6 | 0.67

Same assay, conditions: linoleate (LA); response relative to ADIFAB2

Row | Molecule | DR/DR LA
27 | B7 | 0.66
28 | B8 | 0.91
29 | B9 | 0.99
30 | B10 | 1.24
31 | B11 | 0.74
32 | B12 | 0.66
33 | B13 | 0.90
34 | B14 | 0.36
35 | B15 | 1.37
36 | B16 | 1.23
37 | B17 | 0.40
38 | B18 | 0.77
39 | B19 | 0.55
40 | B20 | 0.37
41 | B21 | 0.28

Assay: Probe fluorescence ratio response to arachidonate:BSA complex, relative to ADIFAB2 (ΔR/ΔRAD2)
Format: binding
Details: arachidonate (AA); response relative to ADIFAB2
Protocol: as §1, §2, §3, §4

Row | Molecule | DR/DR AA
42 | B7 | 0.61
43 | B8 | 0.82
44 | B9 | 1.00
45 | B10 | 1.20
46 | B11 | 0.63
47 | B12 | 0.51
48 | B13 | 0.89
49 | B14 | 0.33
50 | B15 | 1.33
51 | B16 | 1.29
52 | B17 | 0.43
53 | B18 | 0.68
54 | B19 | 0.58
55 | B20 | 0.32
56 | B21 | 0.42

Same assay, conditions: fluorescence response (R-Ro) relative to ADIFAB2; arachidonate

Row | Molecule | ΔR/ΔRAD2 AA
57 | B2 | 1.27
58 | B3 | 0.68
59 | B4 | 1.11
60 | B5 | 2.04
61 | B6 | 0.44

Assay: Probe fluorescence ratio response to oleate:BSA complex, relative to ADIFAB2 (ΔR/ΔRAD2)
Format: binding
Details: fluorescence response (R-Ro) relative to ADIFAB2; oleate
Protocol: as §1, §2, §3, §4

Row | Molecule | ΔR/ΔRAD2 OA
62 | B2 | 0.93
63 | B3 | 0.78
64 | B4 | 0.99
65 | B5 | 1.83
66 | B6 | 0.51

Same assay, conditions: oleate (OA); response relative to ADIFAB2

Row | Molecule | DR/DR OA
67 | B7 | 0.64
68 | B8 | 0.92
69 | B9 | 0.95
70 | B10 | 1.21
71 | B11 | 0.67
72 | B12 | 0.59
73 | B13 | 0.90
74 | B14 | 0.29
75 | B15 | 1.32
76 | B16 | 2.22
77 | B17 | 0.22
78 | B18 | 0.74
79 | B19 | 0.39
80 | B20 | 0.35
81 | B21 | 0.20

Assay: Probe fluorescence ratio response to linolenate:BSA complex, relative to ADIFAB2 (ΔR/ΔRAD2)
Format: binding
Details: fluorescence response (R-Ro) relative to ADIFAB2; linolenate
Protocol: as §1, §2, §3, §4

Row | Molecule | ΔR/ΔRAD2 LNA
82 | B2 | 0.62
83 | B3 | 0.76
84 | B4 | 1.03
85 | B5 | 2.05
86 | B6 | 1.04

Same assay, conditions: linolenate (LNA); response relative to ADIFAB2

Row | Molecule | DR/DR LNA
87 | B7 | 0.69
88 | B8 | 0.86
89 | B9 | 0.97
90 | B10 | 1.28
91 | B11 | 0.70
92 | B12 | 0.63
93 | B13 | 0.99
94 | B14 | 0.37
95 | B15 | 1.43
96 | B16 | 1.29
97 | B17 | 0.39
98 | B18 | 0.74
99 | B19 | 0.51
100 | B20 | 0.35
101 | B21 | 0.29
